Measurements taken from patent US20250243282A1.

Target: Recombinant human Gal3 (rhGal3) (TrueBinding, #QC200361) (human) (UniProt P17931)
Experiment: cell-based or functional assay

In the case of “MOPC21-hIgG4 (S228P) isotype control (antibody)”, the % inhibition of CD62L shedding is reported as 21.1%.
